Biological target: COVID-19 virus main protease (M^pro) (COVID-19 virus)
Assay: crystal structure

COVID-19 virus main protease (M^pro) (enzyme)
stoichiometry N: 2
